Measurements: publication doi:10.1101/2022.10.12.511968v1 (biorxiv, 2022)
Blank lines part the entries; values can stand above or below the molecule they belong to.

Experiments:
[1] = target: T1, METTL7A (TMT1A1; N-GST-METTL7A) (Homo sapiens, UniProt Q9H8H3); assay: TSL S-methylation, TMSL formation by LC-MS/MS, single time-point; assay type: biochemical
T1 sequence (Q9H8H3 1-244): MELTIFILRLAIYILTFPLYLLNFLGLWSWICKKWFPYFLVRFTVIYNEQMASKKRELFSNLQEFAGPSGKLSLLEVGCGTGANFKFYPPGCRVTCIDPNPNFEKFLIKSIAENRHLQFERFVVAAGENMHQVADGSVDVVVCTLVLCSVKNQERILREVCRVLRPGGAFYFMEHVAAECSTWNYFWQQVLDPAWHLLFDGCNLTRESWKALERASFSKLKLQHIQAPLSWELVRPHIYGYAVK

[2] = target: T1, METTL7A (TMT1A1; N-GST-METTL7A); assay: as above; assay type: biochemical; remark: listed apart in the source
purified protein [3] = substrate: C[S+](CC[C@H](N)C(=O)O)C[C@H]1O[C@@H](n2cnc3c(N)ncnc32)[C@H](O)[C@@H]1O; assay: purified protein; settings: 250 µM TSL (saturating), DMPG, pH 7.0, 37 °C, varied: cofactor
purified protein [4] = substrate: C[C@]12CCC(=O)C=C1C[C@@H](S)[C@@H]1[C@@H]2CC[C@@]2(C)[C@H]1CC[C@@]21CCC(=O)O1; assay: purified protein; settings: 100 µM SAM, DMPG, pH 7.0, 37 °C

Molecule: CC(N)c1cccc(Cl)c1Cl (stereo not drawn) [DCMB, 2,3-dichloro-α-methylbenzylamine]
IC50 [1]: 1170 nM

Ki [2]: 53.9 µM
Molecule: Nc1ncnc2c1ncn2[C@@H]1O[C@H](CSCC[C@H](N)C(=O)O)[C@@H](O)[C@H]1O [SAH]

B1: METTL7A (TMT1A1; N-GST-METTL7A) (Homo sapiens) (protein)
chain: MELTIFILRLAIYILTFPLYLLNFLGLWSWICKKWFPYFLVRFTVIYNEQMASKKRELFSNLQEFAGPSGKLSLLEVGCGTGANFKFYPPGCRVTCIDPNPNFEKFLIKSIAENRHLQFERFVVAAGENMHQVADGSVDVVVCTLVLCSVKNQERILREVCRVLRPGGAFYFMEHVAAECSTWNYFWQQVLDPAWHLLFDGCNLTRESWKALERASFSKLKLQHIQAPLSWELVRPHIYGYAVK
Km (purified protein [3]): 53.73 µM
Km (purified protein [4]): 39.4 µM

B2: METTL7B (TMT1B1; N-GST-METTL7B) (Homo sapiens) (protein)
chain: MDILVPLLQLLVLLLTLPLHLMALLGCWQPLCKSYFPYLMAVLTPKSNRKMESKKRELFSQIKGLTGASGKVALLELGCGTGANFQFYPPGCRVTCLDPNPHFEKFLTKSMAENRHLQYERFVVAPGEDMRQLADGSMDVVVCTLVLCSVQSPRKVLQEVRRVLRPGGVLFFWEHVAEPYGSWAFMWQQVFEPTWKHIGDGCCLTRETWKDLENAQFSEIQMERQPPPLKWLPVGPHIMGKAVK
Km (purified protein [4]): 32.5 µM
